Measured values as given in patent US20140079711A1 (Janssen / Centocor, published 2014).

T1: recombinant CD147 ECD-Flag construct (construct #3364, human CD147 ECD1-192) (human, UniProt Q865R3 22-192 (bovine entry))
T1 sequence: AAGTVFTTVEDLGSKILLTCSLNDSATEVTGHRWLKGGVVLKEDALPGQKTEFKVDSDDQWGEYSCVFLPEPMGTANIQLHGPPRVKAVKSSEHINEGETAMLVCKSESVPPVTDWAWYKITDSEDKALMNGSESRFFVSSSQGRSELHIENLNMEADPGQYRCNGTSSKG

T2: CD147-FL-ECD (Asp19-192 of SEQ ID NO: 1) (human, UniProt Q865R3 19-192 (bovine entry))
T2 construct: The Asp19 N-terminus is stated for the hexa-His ECD-FL; also called ECD-FL; CD147 ECD
T2 sequence: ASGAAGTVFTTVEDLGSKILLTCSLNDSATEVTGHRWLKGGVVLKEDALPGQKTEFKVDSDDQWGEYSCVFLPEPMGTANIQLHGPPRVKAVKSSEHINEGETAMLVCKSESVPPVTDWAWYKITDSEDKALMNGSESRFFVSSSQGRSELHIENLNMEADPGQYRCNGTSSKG

T3: native human CD147 on MDA-MB-231 breast carcinoma cells (human, UniProt P35613 140-385)
T3 construct: also called EMMPRIN; MDA-MB-231 cells
T3 sequence: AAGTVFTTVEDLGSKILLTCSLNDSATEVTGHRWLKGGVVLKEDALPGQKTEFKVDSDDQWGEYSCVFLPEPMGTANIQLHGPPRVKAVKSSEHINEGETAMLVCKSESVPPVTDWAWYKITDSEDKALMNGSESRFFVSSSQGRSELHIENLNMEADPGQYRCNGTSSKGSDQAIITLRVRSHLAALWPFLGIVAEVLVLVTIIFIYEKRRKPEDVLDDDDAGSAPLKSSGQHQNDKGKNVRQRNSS


How the values were obtained:
[1] = molecular target: T1, recombinant CD147 ECD-Flag construct …; test: cell-based or functional assay
[2] = molecular target: T2, CD147-FL-ECD (Asp19-192 of SEQ ID NO: 1); test: SPR (Biacore 3000), mAb captured by anti-mouse Fc, CD147-FL-ECD injected
Protocol: Affinity for the CD147 ECD was also measured by surface plasmon resonance (Biacore). Kinetic studies were performed at 25° C. using a BIACORE 3000 (BIAcore, Inc.) surface plasmon resonance (SPR) instrument. Goat anti-mouse Fcy specific antibody (Jackson Immunoresearch laboratories Prod #115-005-071) was covalently attached to carboxymethyl dextran coated gold surfaces (CM-5 Chip, Biacore). The carboxymethyl groups of dextran were activated with N-Ethyl-N′-(3-Dimethylaminopropyl)carbodiimide (EDC) and N-hydroxysuccinimide (NHS). The Ab was attached at pH 4.5 in 10 mM sodium acetate. Any remaining reactive sites on the surface were blocked by reaction with ethanolamine.
For kinetic binding measurements, anti-CD147 mAbs were captured using an anti-mouse Fcy specific antibody at a flow rate of 30 μL/min. Ab capture was followed by injection of CD147-FL-ECD or the N- or C-domain fragments (as described in Example 1) at concentrations between 75 and 300 nM at 60 μL/min. Association data was collected for 2 min followed by 10 min of dissociation. The surface was regenerated with 15 μL of 100 mM H3PO4, followed by 15 μL of 50 mM NaOH at 30 μL/min. All samples were prepared in D-PBS containing 3 mM EDTA and 0.005% surfactant P20. Data reported is the difference in SPR signal between the flow cell containing the captured antibody and a reference cell without captured antibody. Additional instrumental contributions to the signal were removed by subtraction of the data from the blank injection from the reference-subtracted signal. Data were analyzed by fitting association and dissociation phases at all concentrations using the BIAevaluation software (BIAcore, Inc.).

[3] = molecular target: T3, native human CD147 on MDA-MB-231 breast …; test: live cell binding assay on MDA-MB-231 cells, HRP-conjugated secondary antibody, OD 490, antibody at 10 ug/ml

MMP-1 IC50 [1] | Kd [2] | binding result [3] | Binder
20 µg/mL | 5 nM |  | 2C8(mIgG1) (antibody, V domains shown, Murine IgG1 from hybridoma; also called C1170A; C1170) VH: EMKLEESGGGLVQPGGSMKLSCVASGFTFSNYRMNWVRQSPEKGLEWVAQIRLKSYNYATHYAESVKGRFTISRDDSKSSVYLQMNNLRAEDTGIYYCTPDGSDYWGQGTTLTVSS VL: DILMTQSPSSMSVSLGDTVSITCHASQGISSSIGWLQQKPGKSFKGLIYHGTNLEDGVPSRFTGSGSGADYSLTISSLESEDFADYYCVQYAQFPYTFGGGTKLEIK
 | 4 nM |  | 5F6(mIgG1) (antibody, V domains shown, Murine IgG1 from hybridoma; Two light chain V-regions were found for 5F6; also called C1171A; 5F6 mAb) VH: EMKLEESGGGLVQPGGSMKLSCVASGFTFSNYWMNWVRQSPEKGLEWVAQIRLKSYNYATHYAESVKGRFTISRDDSKSSVYLQMNNLRAEDTGIYYCTPDGSDYWGQGTTLTVSS VL: SIVMTQTPKFLLVSAGDRVTITCKASQSVSNDVAWYQQKPGQSPKLLIYYASNRYTGVPDRFTGSGYGTDFTFTISTVQAEDLAVYFCQQDYSSPYTFGGGTKLEIK
 | 100 nM | binds | 4A5(mIgG1) (antibody, V domains shown, Murine IgG1 from hybridoma; also called C1177A; 4A5 mAb) VH: EVQLQQSGPELVKPGASVKISCKASGYTFTDYYMNWVKQSHGKSLEWIGGINPNNGGTSYNQKFKGKATLTVDKSSSTAYMELRSLTSEDSAVYYCARNDGYRGYAMDYWGQGTSVTVSS VL: not shown
